Measurements: paper PMC3002279, “Polyphosphate Kinase from M. tuberculosis: An Interconnect between the Genetic and Biochemical Role” (PLoS ONE, 2010)

Molecular target: the molecule itself
Experiment: SEC; […] (50 mM Tris pH 7.5, 150 mM NaCl, 4 mM MgCl2, 10% glycerol) […]

B1: Polyphosphate Kinase (PPK) from M. tuberculosis, recombinant, untagged (enzyme)
chain: MMSNDRKVTEIENSPVTEVRPEEHAWYPDDSALAAPPAATPAAISDQLPSDRYLNRELSWLDFNARVLALAADKSMPLLERAKFLAIFASNLDEFYMVRVAGLKRRDEMGLSVRSADGLTPREQLGRIGEQTQQLASRHARVFLDSVLPALGEEGIYIVTWADLDQAERDRLSTYFNEQVFPVLTPLAVDPAHPFPFVSGLSLNLAVTVRQPEDGTQHFARVKVPDNVDRFVELAAREASEEAAGTEGRTALRFLPMEELIAAFLPVLFPGMEIVEHHAFRITRNADFEVEEDRDEDLLQALERELARRRFGSPVRLEIADDMTESMLELLLRELDVHPGDVIEVPGLLDLSSLWQIYAVDRPTLKDRTFVPATHPAFAERETPKSIFATLREGDVLVHHPYDSFSTSVQRFIEQAAADPNVLAIKQTLYRTSGDSPIVRALIDAAEAGKQVVALVEIKARFDEQANIAWARALEQAGVHVAYGLVGLKTHCKTALVVRREGPTIRRYCHVGTGNYNSKTARLYEDVGLLTAAPDIGADLTDLFNSLTGYSRKLSYRNLLVAPHGIRAGIIDRVEREVAAHRAEGAHNGKGRIRLKMNALVDEQVIDALYRASRAGVRIEVVVRGICALRPGAQGISENIIVRSILGRFLEHSRILHFRAIDEFWIGSADMMHRNLDRRVEVMAQVKNPRLTAQLDELFESALDPCTRCWELGPDGQWTASPQEGHSVRDHQESLMERHRSP
notes: also called M. tu PPK; M.tu PPK
For B1, which “stoichiometry N” value is on record?
Its value is 4.
